Reference: US20130251642A1 (US Dept. of Health and Human Services, published 2013)

Columns and labels:
cell surface human ROR1 [1] = target: T1, cell surface human ROR1 (human, UniProt Q01973 30-937); experiment: flow cytometry on primary CLL cells of one patient, IgG1 at 1 µg/mL
T1 construct: whole, on cells; The cell type of each entry is named under assay; also called HEK 293F/hROR1; HEK 293F cells stably transfected with human ROR1

[2] = target: T2, Fc-hROR1 (the three extracellular domains of human ROR1 fused to the Fc domain of human IgG1) (human, UniProt Q01973 30-406); experiment: SPR on immobilized Fc-hROR1; bivalent IgG1 R11 against monovalent Fab R11
T2 construct: extracellular domain; also called human ROR1 (Fc-hROR1); not shown: Fc domain of human IgG1

cell surface human ROR1 [3] = target: T1, cell surface human ROR1; experiment: flow cytometry on primary CLL cells of one patient, IgG1 at 5 µg/mL
Fc-hROR1fz = target: T3, Fc-hROR1fz (human, UniProt Q01973 165-299, limits assumed); experiment: ELISA, Fc fusion of one or two domains of human ROR1 immobilized, antibody in IgG1 format, absorbance at 405 nm
T3 construct: domain: Frizzled; not shown: Fc domain (human IgG1 Fc is stated for Fc-hROR1; not restated for this construct)

Fc-hROR1ig [4] = target: T4, Fc-hROR1ig (human, UniProt Q01973 30-147, limits assumed); experiment: as above
T4 construct: domain: Ig; not shown: Fc domain (human IgG1 Fc is stated for Fc-hROR1; not restated for this construct)

Fc-hROR1ig+fz = target: T5, Fc-hROR1ig+fz (human, UniProt Q01973 30-299, limits assumed); experiment: as above
T5 construct: domain: Ig and Frizzled; not shown: Fc domain (human IgG1 Fc is stated for Fc-hROR1; not restated for this construct)

[5] = target: T6, hROR2-Fc (commercially available, R&D Systems) (human, UniProt Q01974 34-403); experiment: ELISA, antigen immobilized, antibody in IgG1 format, absorbance at 405 nm
T6 construct: Bought from R&D Systems; also called human ROR2 (hROR2-Fc); not shown: Fc part of the bought fusion

cell surface human ROR1 [6] = target: T1, cell surface human ROR1; experiment: flow cytometry on primary CLL cells of one patient, IgG1 at 0.1 µg/mL
[7] = target: T6, hROR2-Fc (commercially available, R&D …); experiment: ELISA on immobilized hROR2-Fc (Fab data not shown)
[8] = target: T2, Fc-hROR1 (the three extracellular …); experiment: SPR on immobilized Fc-hROR1; bivalent IgG1 R12 against monovalent Fab R12
Fc-hROR1fz+kr = target: T7, Fc-hROR1fz+kr (human, UniProt Q01973 165-406, limits assumed); experiment: ELISA, Fc fusion of one or two domains of human ROR1 immobilized, antibody in IgG1 format, absorbance at 405 nm
T7 construct: domain: Frizzled and Kringle; also called Fc-hROR1kr+fz; Fc-ROR1fz+kr; not shown: Fc domain (human IgG1 Fc is stated for Fc-hROR1; not restated for this construct)

Fc-hROR1kr [9] = target: T8, Fc-hROR1kr (human, UniProt Q01973 312-391); experiment: as above
T8 construct: domain: Kringle; not shown: Fc domain (human IgG1 Fc is stated for Fc-hROR1; not restated for this construct)

[10] = target: T9, Fc-mROR1 (mouse analogue of Fc-hROR1) (mouse, UniProt Q9Z139 30-406); experiment: ELISA, antigen immobilized, antibody in IgG1 format, absorbance at 405 nm
T9 construct: extracellular domain; also called mouse ROR1 (Fc-mROR1); not shown: Fc domain (human IgG1 Fc is stated for Fc-hROR1; not restated for this construct)

Fc-hROR1kr [11] = target: T8, Fc-hROR1kr; experiment: ELISA on immobilized Fc-hROR1kr (Fab data not shown)
[12] = target: T9, Fc-mROR1 (mouse analogue of Fc-hROR1); experiment: SPR (Biacore X100), Fc-mROR1 immobilized on CM5 chip
Fc-hROR1ig [13] = target: T4, Fc-hROR1ig; experiment: ELISA on immobilized Fc-hROR1ig (Fab data not shown)
[14] = target: T2, Fc-hROR1 (the three extracellular …); experiment: SPR on immobilized Fc-hROR1; bivalent IgG1 Y31 against monovalent Fab Y31

T8 sequence (Q01973 312-391): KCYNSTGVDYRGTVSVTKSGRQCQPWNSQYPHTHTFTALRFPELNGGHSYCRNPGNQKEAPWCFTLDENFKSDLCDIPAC
T4 sequence (Q01973 30-147 limits assumed): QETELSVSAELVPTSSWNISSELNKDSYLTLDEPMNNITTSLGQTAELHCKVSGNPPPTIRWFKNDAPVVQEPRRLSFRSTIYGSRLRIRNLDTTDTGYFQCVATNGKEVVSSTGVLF
T1 sequence (Q01973 30-937): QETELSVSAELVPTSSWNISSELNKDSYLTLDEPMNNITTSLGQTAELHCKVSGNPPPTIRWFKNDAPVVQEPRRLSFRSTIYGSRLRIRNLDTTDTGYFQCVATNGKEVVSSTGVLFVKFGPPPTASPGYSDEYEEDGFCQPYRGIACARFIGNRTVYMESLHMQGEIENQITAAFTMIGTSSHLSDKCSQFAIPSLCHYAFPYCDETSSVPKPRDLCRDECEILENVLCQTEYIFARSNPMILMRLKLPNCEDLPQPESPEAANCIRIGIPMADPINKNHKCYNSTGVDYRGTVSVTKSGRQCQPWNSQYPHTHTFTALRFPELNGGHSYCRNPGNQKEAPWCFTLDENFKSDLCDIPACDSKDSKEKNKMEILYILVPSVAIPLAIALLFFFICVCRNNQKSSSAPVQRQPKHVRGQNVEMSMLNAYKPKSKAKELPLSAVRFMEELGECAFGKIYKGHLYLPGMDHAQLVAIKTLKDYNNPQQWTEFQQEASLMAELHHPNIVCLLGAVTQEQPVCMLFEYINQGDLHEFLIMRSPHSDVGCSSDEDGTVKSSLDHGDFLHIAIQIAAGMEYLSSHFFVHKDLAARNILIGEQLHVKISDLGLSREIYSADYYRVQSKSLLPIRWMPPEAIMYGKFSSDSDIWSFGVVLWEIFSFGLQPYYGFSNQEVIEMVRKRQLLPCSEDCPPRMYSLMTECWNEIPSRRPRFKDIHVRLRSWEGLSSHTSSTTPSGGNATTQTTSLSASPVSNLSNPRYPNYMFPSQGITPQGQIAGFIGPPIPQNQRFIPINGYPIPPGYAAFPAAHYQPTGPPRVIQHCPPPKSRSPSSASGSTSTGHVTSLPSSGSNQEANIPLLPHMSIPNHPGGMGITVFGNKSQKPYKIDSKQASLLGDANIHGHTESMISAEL
T2 sequence (Q01973 30-406): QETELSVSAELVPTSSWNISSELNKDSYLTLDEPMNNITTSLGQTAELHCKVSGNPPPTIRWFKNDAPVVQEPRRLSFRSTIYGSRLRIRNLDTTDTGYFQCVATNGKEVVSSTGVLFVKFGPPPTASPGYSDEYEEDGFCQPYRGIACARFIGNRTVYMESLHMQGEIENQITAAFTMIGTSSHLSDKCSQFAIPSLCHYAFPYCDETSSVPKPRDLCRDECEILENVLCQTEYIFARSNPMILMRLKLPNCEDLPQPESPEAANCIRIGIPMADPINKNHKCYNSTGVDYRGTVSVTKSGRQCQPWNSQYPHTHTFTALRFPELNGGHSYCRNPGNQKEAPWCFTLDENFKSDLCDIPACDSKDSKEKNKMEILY
T9 sequence (Q9Z139 30-406): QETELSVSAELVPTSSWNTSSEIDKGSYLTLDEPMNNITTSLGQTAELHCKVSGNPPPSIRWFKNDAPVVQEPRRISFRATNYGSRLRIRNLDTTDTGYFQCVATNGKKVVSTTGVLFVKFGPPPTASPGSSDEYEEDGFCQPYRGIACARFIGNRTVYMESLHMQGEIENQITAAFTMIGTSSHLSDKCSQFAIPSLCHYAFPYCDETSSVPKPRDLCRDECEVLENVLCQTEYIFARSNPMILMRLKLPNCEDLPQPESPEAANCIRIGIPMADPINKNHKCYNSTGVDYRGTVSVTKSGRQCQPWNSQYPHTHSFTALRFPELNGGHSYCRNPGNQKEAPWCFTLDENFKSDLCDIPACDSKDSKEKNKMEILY
T5 sequence (Q01973 30-299 limits assumed): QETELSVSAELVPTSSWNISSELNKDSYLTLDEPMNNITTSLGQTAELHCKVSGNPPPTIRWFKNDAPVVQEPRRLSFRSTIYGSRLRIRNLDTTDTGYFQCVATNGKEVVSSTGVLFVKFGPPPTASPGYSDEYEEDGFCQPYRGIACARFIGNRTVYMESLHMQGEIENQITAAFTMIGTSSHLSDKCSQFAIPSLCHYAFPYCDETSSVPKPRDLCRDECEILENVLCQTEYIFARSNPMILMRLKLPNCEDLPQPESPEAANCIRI
T6 sequence (Q01974 34-403 limits assumed): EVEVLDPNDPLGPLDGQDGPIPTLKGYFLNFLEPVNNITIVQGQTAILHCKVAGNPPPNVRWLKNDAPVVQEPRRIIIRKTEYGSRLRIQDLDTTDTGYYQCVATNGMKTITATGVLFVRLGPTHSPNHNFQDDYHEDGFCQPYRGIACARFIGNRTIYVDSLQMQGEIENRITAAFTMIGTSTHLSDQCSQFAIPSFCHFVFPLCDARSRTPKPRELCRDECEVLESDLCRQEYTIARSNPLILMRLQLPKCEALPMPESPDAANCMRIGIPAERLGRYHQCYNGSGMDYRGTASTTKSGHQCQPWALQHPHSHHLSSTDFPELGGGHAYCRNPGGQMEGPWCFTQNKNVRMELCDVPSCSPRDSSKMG
T3 sequence (Q01973 165-299 limits assumed): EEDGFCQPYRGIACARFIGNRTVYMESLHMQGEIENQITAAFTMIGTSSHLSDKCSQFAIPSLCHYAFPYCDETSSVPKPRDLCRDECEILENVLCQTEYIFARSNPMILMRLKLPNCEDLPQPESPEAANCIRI
T7 sequence (Q01973 165-406 limits assumed): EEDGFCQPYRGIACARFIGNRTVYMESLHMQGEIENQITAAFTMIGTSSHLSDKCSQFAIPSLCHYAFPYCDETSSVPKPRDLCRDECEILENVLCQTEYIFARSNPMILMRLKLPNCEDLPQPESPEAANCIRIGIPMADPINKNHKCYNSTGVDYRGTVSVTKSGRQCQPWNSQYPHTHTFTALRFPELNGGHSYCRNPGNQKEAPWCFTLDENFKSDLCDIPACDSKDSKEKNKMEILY

B1: chimeric rabbit/human IgG1 R11 (antibody, V domains shown)
VH: QSVKESEGDLVTPAGNLTLTCTASGSDINDYPISWVRQAPGKGLEWIGFINSGGSTWYASWVKGRFTISRTSTTVDLKMTSLTTDDTATYFCARGYSTYYCDFNIWGPGTLVTISS
VL: ELVMTQTPSSTSGAVGGTVTINCQASQSIDSNLAWFQQKPGQPPTLLIYRASNLASGVPSRFSGSRSGTEYTLTISGVQREDAATYYCLGGVGNVSYRTSFGGGTEVVVK
notes: IgG1 format from vector PIGG (human gamma 1 heavy and kappa light constant regions), four polypeptide chains, made in HEK 293F cells; Biotinylated for flow cytometry; also called IgG1 11; mAb R11
For B1, the MFI (cell surface human ROR1 [1]) was 18.1 MFI, the “factor of increase of virtual affinity, IgG1 against Fab” value (from here on “factor of increase of virtual affinity”) [2] was 14 fold and the MFI (cell surface human ROR1 [3]) was 64.9 MFI. B1: no binding (tested: not given) (Fc-hROR1fz); no binding (tested: not given) (Fc-hROR1ig [4]); no binding (tested: not given) (Fc-hROR1ig+fz). The binding result [5] was “no binding (tested: not given)” and the MFI (cell surface human ROR1 [6]) was 6.6 MFI.

B2: chimeric rabbit/human Fab R11 (Fab, V domains shown)
VH: QSVKESEGDLVTPAGNLTLTCTASGSDINDYPISWVRQAPGKGLEWIGFINSGGSTWYASWVKGRFTISRTSTTVDLKMTSLTTDDTATYFCARGYSTYYCDFNIWGPGTLVTISS
VL: ELVMTQTPSSTSGAVGGTVTINCQASQSIDSNLAWFQQKPGQPPTLLIYRASNLASGVPSRFSGSRSGTEYTLTISGVQREDAATYYCLGGVGNVSYRTSFGGGTEVVVK
notes: Fab with human C kappa and human CH1; For SPR it was the purified Fab-(His)6 from pET11a (HA tag removed, C-terminal His6)
B2: no binding [7].

B3: chimeric rabbit/human IgG1 R12 (antibody, V domains shown)
VH: QEQLVESGGRLVTPGGSLTLSCKASGFDFSAYYMSWVRQAPGKGLEWIATIYPSSGKTYYATWVNGRFTISSDNAQNTVDLQMNSLTAADRATYFCARDSYADDGALFNIWGPGTLVTISS
VL: ELVLTQSPSVSAALGSPAKITCTLSSAHKTDTIDWYQQLQGEAPRYLMQVQSDGSYTKRPGVPDRFSGSSSGADRYLIIPSVQADDEADYYCGADYIGGYVFGGGTQLTVTG
notes: IgG1 format from vector PIGG; The light chain is rabbit V lambda and human C kappa; the heavy chain has the human gamma 1 constant region; Made in HEK 293F cells; Biotinylated for flow cytometry; also called mAb R12
With B3 the MFI (cell surface human ROR1 [1]) was 97.9 MFI, the “factor of increase of virtual affinity” value [8] was 5 fold and the MFI (cell surface human ROR1 [3]) was 122 MFI. B3: no binding (tested: not given) (Fc-hROR1fz+kr); no binding (tested: not given) (Fc-hROR1ig [4]); no binding (tested: not given) (Fc-hROR1kr [9]). For the same binder, the binding result [10] was “no binding (tested: not given)” and the MFI (cell surface human ROR1 [6]) was 89.4 MFI.

B4: chimeric rabbit/human Fab R12 (Fab, V domains shown)
VH: QEQLVESGGRLVTPGGSLTLSCKASGFDFSAYYMSWVRQAPGKGLEWIATIYPSSGKTYYATWVNGRFTISSDNAQNTVDLQMNSLTAADRATYFCARDSYADDGALFNIWGPGTLVTISS
VL: ELVLTQSPSVSAALGSPAKITCTLSSAHKTDTIDWYQQLQGEAPRYLMQVQSDGSYTKRPGVPDRFSGSSSGADRYLIIPSVQADDEADYYCGADYIGGYVFGGGTQLTVTG
notes: The light chain is rabbit V lambda with human C kappa; SPR: purified Fab-(His)6
B4: no binding (Fc-hROR1kr [11]); no binding (tested: 1.5 to 100 nM) [12]; no binding (Fc-hROR1ig [13]).

B5: chimeric rabbit/human IgG1 Y31 (antibody, V domains shown)
VH: QSLEESGGRLVTPGTPLTLTCTVSGIDLNSHWMSWVRQAPGKGLEWIGIIAASGSTYYANWAKGRFTISKTSTTVDLRIASPTTEDTATYFCARDYGDYRLVTFNIWGPGTLVTVSS
VL: ELVMTQTPSSVSAAVGGTVTINCQASQSIGSYLAWYQQKPGQPPKLLIYYASNLASGVPSRFSGSGSGTEYTLTISGVQREDAATYYCLGSLSNSDNVFGGGTELEIL
notes: IgG1 format from vector PIGG (human gamma 1 heavy and kappa light constant regions), made in HEK 293F cells; Biotinylated for flow cytometry; also called mAb Y31
With B5 the MFI (cell surface human ROR1 [1]) was 8.3 MFI, the MFI (cell surface human ROR1 [3]) was 21.6 MFI and the binding result (Fc-hROR1ig [4]) was “no binding (tested: not given)”. For the same binder, the binding result (Fc-hROR1kr [9]) was “no binding (tested: not given)”, the binding result (Fc-hROR1ig+fz) was “no binding (tested: not given)” and the “factor of increase of virtual affinity” value [14] was 12 fold.

B6: chimeric rabbit/human Fab Y31 (Fab, V domains shown)
VH: QSLEESGGRLVTPGTPLTLTCTVSGIDLNSHWMSWVRQAPGKGLEWIGIIAASGSTYYANWAKGRFTISKTSTTVDLRIASPTTEDTATYFCARDYGDYRLVTFNIWGPGTLVTVSS
VL: ELVMTQTPSSVSAAVGGTVTINCQASQSIGSYLAWYQQKPGQPPKLLIYYASNLASGVPSRFSGSGSGTEYTLTISGVQREDAATYYCLGSLSNSDNVFGGGTELEIL
notes: Fab with human C kappa and human CH1; SPR: purified Fab-(His)6
B6: no binding (Fc-hROR1kr [11]); no binding (Fc-hROR1ig [13]).
